Here are results for 8 molecules from patent US20260034230A1 (Regeneron, published 2026).

Assay [1] deals with T1, REGN2054 (mf TFRC ecto-mmh): monomeric monkey (cyno) Tfrc ectodomain (C89-F760) with C-terminal … (monkey (cyno, Macaca fascicularis), UniProt H9EXL1 89-760).
T1 construct: range 89-760; also called mfTFR-mmh; mfTfR-mmh
Kind of assay: SPR Biacore, IgG captured by anti-hFc, 25 C. As for the experimental part:
(§1) Biacore binding kinetics assays were conducted for the interaction of 32 anti-human TfR IgG1 monoclonal antibodies from CHO supernatants with TfR reagents at 25° C.
(§2) Equilibrium dissociation constants (KD) for the interaction of anti-TfR monoclonal antibodies with human and fascicularis monkey TfR ecto domain recombinant proteins were determined using a real-time surface plasmon resonance (SPR) based Biacore S200 biosensor. All binding studies were performed in 10 mM HEPES, 150 mM NaCl, 3 mM EDTA, and 0.05% v/v surfactant Tween-20, pH 7.4 (HBS-EP) running buffer at […]. The Biacore CM5 sensor surface was first derivatized by amine coupling with a monoclonal mouse anti-human Fc antibody (REGN2567) followed by a step to capture anti-TfR monoclonal antibodies in CHO conditioned media. […] The dissociation of TfR bound to anti-TfR monoclonal antibodies was monitored for 3 minutes in HBS-EP running buffer. At the end of each cycle, the anti-TfR monoclonal antibodies capture surface was regenerated using a 12-see injection of 20 mM H₃PO₄. The association rate (ka) and dissociation rate (kd) were determined by fitting the real-time binding sensorgrams to a 1:1 binding model with mass transport limitation using Scrubber 2.0c software. The dissociation equilibrium constant (KD) and dissociative half-life (t %) were calculated from the kinetic rate constants as: […]
On the technique in general: Surface plasmon resonance follows binding to a sensor surface in real time, without labels.

Assay [2] addresses T2, REGN2431 (hmm.hTfRC): monomeric human Tfrc ectodomain (C89-F760) with N-terminal hexahistidine-myc-myc tag (human, UniProt P02786 89-760).
T2 construct: also called hmm.hTfR(C89-F763); hTFR-mmh
Kind of assay: SPR Biacore, IgG captured by anti-hFc, 25 C. As for the experimental part: as §1, §2

T1 sequence (chain, as listed by the source): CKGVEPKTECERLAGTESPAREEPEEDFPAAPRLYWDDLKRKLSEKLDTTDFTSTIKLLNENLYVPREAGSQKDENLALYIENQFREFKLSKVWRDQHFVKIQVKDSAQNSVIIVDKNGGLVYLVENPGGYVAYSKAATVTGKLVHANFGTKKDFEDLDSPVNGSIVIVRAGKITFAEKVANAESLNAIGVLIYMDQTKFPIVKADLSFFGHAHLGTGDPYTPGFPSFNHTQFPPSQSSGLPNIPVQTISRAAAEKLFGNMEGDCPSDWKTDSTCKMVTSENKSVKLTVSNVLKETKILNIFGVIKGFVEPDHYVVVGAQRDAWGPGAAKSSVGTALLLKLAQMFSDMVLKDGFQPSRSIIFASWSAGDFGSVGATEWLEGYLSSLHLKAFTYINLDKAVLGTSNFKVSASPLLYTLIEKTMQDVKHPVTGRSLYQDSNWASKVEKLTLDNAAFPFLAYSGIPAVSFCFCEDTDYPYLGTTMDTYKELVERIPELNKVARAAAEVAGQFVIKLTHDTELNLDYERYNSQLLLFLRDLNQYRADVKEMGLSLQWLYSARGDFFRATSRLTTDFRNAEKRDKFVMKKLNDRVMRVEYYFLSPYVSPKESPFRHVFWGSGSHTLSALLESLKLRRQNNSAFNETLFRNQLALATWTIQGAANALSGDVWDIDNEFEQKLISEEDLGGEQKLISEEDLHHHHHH
T2 sequence (P02786 other isoform, or with tags, fused parts or gaps): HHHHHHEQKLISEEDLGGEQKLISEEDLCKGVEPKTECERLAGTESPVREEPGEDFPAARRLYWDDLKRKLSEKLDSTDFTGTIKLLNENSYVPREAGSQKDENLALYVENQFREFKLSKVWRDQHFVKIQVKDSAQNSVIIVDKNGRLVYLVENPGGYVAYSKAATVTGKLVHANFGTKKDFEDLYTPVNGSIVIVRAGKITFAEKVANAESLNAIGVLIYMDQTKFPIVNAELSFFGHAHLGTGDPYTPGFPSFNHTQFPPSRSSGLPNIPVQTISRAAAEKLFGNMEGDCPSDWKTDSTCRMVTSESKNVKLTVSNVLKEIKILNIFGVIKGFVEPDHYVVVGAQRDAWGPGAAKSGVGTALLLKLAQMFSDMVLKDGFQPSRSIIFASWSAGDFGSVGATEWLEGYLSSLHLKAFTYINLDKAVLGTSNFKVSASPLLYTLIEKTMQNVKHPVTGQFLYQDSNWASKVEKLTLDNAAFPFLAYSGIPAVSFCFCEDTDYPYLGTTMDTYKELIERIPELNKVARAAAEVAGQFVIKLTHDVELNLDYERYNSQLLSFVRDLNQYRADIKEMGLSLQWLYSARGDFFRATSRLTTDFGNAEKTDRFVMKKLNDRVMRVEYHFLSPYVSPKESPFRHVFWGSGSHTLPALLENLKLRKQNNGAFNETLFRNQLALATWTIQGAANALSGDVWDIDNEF

B1: 12844B anti-hTfR monoclonal antibody (bivalent IgG1) (antibody, V domains shown)
VH: EVQLVESGGSVVRPGGSLRLSCEASGFTFDDYGMSWVRQDPGKGLEWVSGINWNGDRTNYADSVKGRFIISRDNAKNSVYLQMNSLRAEDSALYHCARDQGLGVAATLDYWGQGTLVTVSS
VL: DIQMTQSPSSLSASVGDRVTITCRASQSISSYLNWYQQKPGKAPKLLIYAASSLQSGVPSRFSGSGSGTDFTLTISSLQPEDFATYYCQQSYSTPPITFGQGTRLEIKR
notes: hIgG1/kappa
On to B1, for which the t1/2 in assay [1] was 15.7 min; in assay [2], 95 min.

B2: 12835B anti-hTfR monoclonal antibody (bivalent IgG1) (antibody, V domains shown)
VH: EVQLVESGGGLIQPGGSLRLSCEASGFTFRNYEMNWVRQAPGKGLEWVSYISSSGNMKDYAESVKGRFTISRDNVKNSLQLQMNSLRVEDTAVYYCARDEFPYGMDVWGQGTTVTVSS
VL: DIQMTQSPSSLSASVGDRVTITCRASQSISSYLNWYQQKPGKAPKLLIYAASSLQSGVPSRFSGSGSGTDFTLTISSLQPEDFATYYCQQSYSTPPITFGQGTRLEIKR
notes: hIgG1/kappa; also called H1H12835B; REGN17509
On to B2, for which the values for the t1/2 in assay [1] and in assay [2] were 6.9 min and 27.7 min, respectively.

B3: 12848B anti-hTfR monoclonal antibody (bivalent IgG1) (antibody, V domains shown)
VH: EVQLVESGGGLVQPGRSLTLSCAASGFTFDNFGMHWVRQGPGKGLEWVSGLTWNSGVIGYADSVKGRFTISRDNAKNSLYLQMNSLRPEDTALYYCAKDIRNYGPFDYWGQGTLVTVSS
VL: not shown
notes: hIgG1/kappa; also called H1H12848B; REGN17515
For the molecule B3, the t1/2 was 12 min in assay [1] and 232 min in assay [2].

B4: 12808B anti-hTfR monoclonal antibody (bivalent IgG1) (antibody, V domains shown)
VH: QLQLQESGPGLVKPSETLSLTCTVSGESISSNTYYWGWIRQPPGKGLEWIGSIDYSGTTNYNPSLKSRVTISVDTSRNHFSLRLRSVTAADTAVYYCAREWGNYGYYYGMDVWGQGTTVTVSS
VL: DIQMTQSPSSLSASVGDRVTINCRASQGIRNDLGWYQQKPGKAPKRLIYAASSLQSGVPLRFSGSGSGTEFTLTINNLQPEDFATYYCLSHNSYPWTFGQGTKVEIKR
notes: hIgG1/kappa
In the case of B4, the t1/2 in assay [1] stood at 25.5 min; in assay [2] it was 108 min.

B5: 12843B anti-hTfR monoclonal antibody (bivalent IgG1) (antibody, V domains shown)
VH: EVQLVESGGGLVQPGGSLRLSCAASGFTFNIFEMNWVRQAPGKGLEWISYISSRGTTTYYADSVRGRFTISRDNAKNSLYLQMNSLRAEDTAVYYCARDYEATIPFDFWGQGTLVTVSS
VL: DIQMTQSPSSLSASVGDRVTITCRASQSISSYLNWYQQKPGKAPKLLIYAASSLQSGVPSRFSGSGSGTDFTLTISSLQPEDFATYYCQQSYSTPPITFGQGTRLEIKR
notes: hIgG1/kappa; also called H1H12843B; REGN17512
Take B5: the t1/2 in assay [1] was 9.8 min; in assay [2], 68.8 min.

B6: 12802B anti-hTfR monoclonal antibody (bivalent IgG1) (antibody, V domains shown)
VH: QVQLVESGGGLVKPGGSLRLSCAASGFTFSDYFMSWIRQAPGKGLEWVSYISSTGSTINYADSVKGRFTISRDNVKNSLYLQMTSLRVEDTAVYYCTRDNWNYEYWGQGTLVTVSS
VL: EIVMTQSPATLSVSPGERATLSCRASQSVSINLAWYQQKPGQAPRLLIFVASTRATGIPARFSGSGSGTEFTLTISSLQSEDFATYYCQQYDIWPYTFGQGTKLEIKR
notes: hIgG1/kappa
For B6, the t1/2 is 21.8 min in assay [1] and 395 min in assay [2].

B7: 12801B anti-hTfR monoclonal antibody (bivalent IgG1) (antibody, V domains shown)
VH: EVQLLESGGALVQPGGSLRLSCAASGFTFTSYAMHWVRQAPGKGLEWVSSIRGSGGGTYSADSVKGRFTISRDNSRDTLYLQMNSVRAEDTAVYYCARSHDYGAFDFFDYWGQGTLVTVSS
VL: DIQMTQSPSSLSASVGDRVTITCRASQGIRTDLGWYQQKPGKAPKRLIYAASSLQSGVPSRFSGSGSGTEFTLTISSLRPEDFATFYCLQYNSYPLTFGGGTKVEIKR
notes: hIgG1/kappa
Regarding B7, the t1/2 came out at 17.7 min in assay [1] and 276 min in assay [2].

B8: 12847B anti-hTfR monoclonal antibody (bivalent IgG1) (antibody, V domains shown)
VH: EVQLVESGGGLVQPGRSLRLSCAASGFTFDDYAMNWVRQAPGKGLEWVSGISWSSGSMDYADSVKGRFTISRDNAKNSLYLQMNSLRTEDTALYYCAKAREVGDYYGMDVWGQGTTVTVSS
VL: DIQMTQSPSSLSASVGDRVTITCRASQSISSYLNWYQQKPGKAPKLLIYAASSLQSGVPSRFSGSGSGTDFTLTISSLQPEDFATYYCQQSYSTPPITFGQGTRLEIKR
notes: hIgG1/kappa; also called H1H12847B; REGN17514
For the molecule B8, the t1/2 in assay [1] came to 34.7 min; in assay [2], 67.6 min.
